Source: the supplement of paper PMC9112550, “Optimization of the antimicrobial peptide Bac7 by deep mutational scanning” (BMC Biology, 2022)

Each sequence was assayed on Escherichia coli TOP10 (assay: shrunken log2 fold change of peptide-encoding DNA abundance (4.5 h post-induction vs induction); higher = less antimicrobial activity (less host growth inhibition)). Conditions: time post-induction: 4.5 h; library: site-saturation at positions 5, 18, 19, 20.
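Further: peptides expressed intracellularly from a pBAD plasmid library in pooled LB shake-flask culture, induced with 0.3% L-arabinose, DNA abundance read by NGS, three biological replicates, DESeq2 with apeglm shrinkage.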

| Sequence | shrunken log2 fold change |
| --- | --- |
| RRIRNRPPRLPRPRPRPNIGPRP | -0.00968 |
| RRIRIRPPRLPRPRPRPERSPRP | -0.164 |
| RRIRIRPPRLPRPRPRPESKPRP | -0.208 |
| RRIRSRPPRLPRPRPRPNCYPRP | -0.0528 |
| RRIRSRPPRLPRPRPRPQCRPRP | -0.0553 |
| RRIRQRPPRLPRPRPRPRQSPRP | 0.0272 |
| RRIRWRPPRLPRPRPRPCNWPRP | 0.136 |
| RRIRYRPPRLPRPRPRPISFPRP | -0.00256 |
| RRIRHRPPRLPRPRPRPGCVPRP | 0.000164 |
| RRIRARPPRLPRPRPRPMTHPRP | 0.151 |
| RRIRERPPRLPRPRPRPYNCPRP | 0.275 |
| RRIRYRPPRLPRPRPRPAKNPRP | -0.508 |
| RRIRTRPPRLPRPRPRPEISPRP | 0.00497 |
| RRIRGRPPRLPRPRPRPKQTPRP | 0.175 |
| RRIRYRPPRLPRPRPRPWWCPRP | -0.139 |
| RRIRTRPPRLPRPRPRPHAYPRP | -0.635 |
| RRIRARPPRLPRPRPRPVREPRP | 1.01 |
| RRIRKRPPRLPRPRPRPNRQPRP | 1.09 |
| RRIRNRPPRLPRPRPRPGCVPRP | 0.634 |
| RRIRDRPPRLPRPRPRPPTFPRP | -0.158 |
| RRIRKRPPRLPRPRPRPSVPPRP | 0.21 |
| RRIRKRPPRLPRPRPRPQVCPRP | 0.138 |
| RRIRFRPPRLPRPRPRPSETPRP | -0.13 |
| RRIRIRPPRLPRPRPRPQMDPRP | -0.258 |
| RRIRRRPPRLPRPRPRPMYAPRP | 0.148 |

| Sequence | shrunken log2 fold change |
| --- | --- |
| RRIRDRPPRLPRPRPRPHLIPRP | -0.0328 |
| RRIRCRPPRLPRPRPRPIALPRP | -0.102 |
| RRIRWRPPRLPRPRPRPRYTPRP | -0.25 |
| RRIRRRPPRLPRPRPRPMWHPRP | -0.03 |
| RRIRQRPPRLPRPRPRPTSTPRP | -0.0784 |
| RRIRNRPPRLPRPRPRPACNPRP | -0.148 |
| RRIRVRPPRLPRPRPRPHIGPRP | -0.0312 |
| RRIRDRPPRLPRPRPRPWRPPRP | 0.0967 |
| RRIRGRPPRLPRPRPRPSTAPRP | 0.926 |
| RRIRERPPRLPRPRPRPPYNPRP | -0.728 |
| RRIRQRPPRLPRPRPRPKAIPRP | 0.0432 |
| RRIRHRPPRLPRPRPRPSRHPRP | 1.6 |
| RRIRIRPPRLPRPRPRPHTIPRP | -0.572 |
| RRIRVRPPRLPRPRPRPAPSPRP | 0.342 |
| RRIRIRPPRLPRPRPRPSGKPRP | -0.146 |
| RRIRWRPPRLPRPRPRPQCEPRP | -0.0451 |
| RRIRSRPPRLPRPRPRPIHSPRP | -0.567 |
| RRIRWRPPRLPRPRPRPRSIPRP | -0.006 |
| RRIRGRPPRLPRPRPRPLTNPRP | 0.364 |
| RRIRVRPPRLPRPRPRPFCWPRP | 0.163 |
| RRIRVRPPRLPRPRPRPTYEPRP | -0.152 |
| RRIRIRPPRLPRPRPRPERRPRP | 0.264 |
| RRIRHRPPRLPRPRPRPAGKPRP | 0.0288 |
| RRIRDRPPRLPRPRPRPLMLPRP | 0.116 |
| RRIRIRPPRLPRPRPRPQEDPRP | -0.0165 |

| Sequence | shrunken log2 fold change |
| --- | --- |
| RRIRKRPPRLPRPRPRPQICPRP | -0.0742 |
| RRIRARPPRLPRPRPRPMNFPRP | -0.0564 |
| RRIRCRPPRLPRPRPRPHDRPRP | -0.0905 |
| RRIRCRPPRLPRPRPRPDMQPRP | -0.672 |
| RRIRFRPPRLPRPRPRPTHVPRP | 0.119 |
| RRIRDRPPRLPRPRPRPWFTPRP | -0.175 |
| RRIRQRPPRLPRPRPRPIPMPRP | -0.639 |
| RRIRDRPPRLPRPRPRPLDVPRP | -0.0992 |
| RRIRFRPPRLPRPRPRPGYHPRP | -1.45 |
| RRIRRRPPRLPRPRPRPSFQPRP | 0.0356 |
| RRIRVRPPRLPRPRPRPRKGPRP | 0.328 |
| RRIRPRPPRLPRPRPRPNNFPRP | -0.364 |
| RRIRNRPPRLPRPRPRPTRSPRP | -0.177 |
| RRIRQRPPRLPRPRPRPCLIPRP | -0.0017 |
| RRIRSRPPRLPRPRPRPHEEPRP | 0.0919 |
| RRIRWRPPRLPRPRPRPIWYPRP | -0.149 |
| RRIRNRPPRLPRPRPRPNVYPRP | -0.17 |
| RRIRDRPPRLPRPRPRPYILPRP | -0.592 |
| RRIRPRPPRLPRPRPRPIPAPRP | 0.342 |
| RRIRTRPPRLPRPRPRPQYEPRP | 0.00772 |
| RRIRTRPPRLPRPRPRPYVCPRP | -0.215 |
| RRIRVRPPRLPRPRPRPIHRPRP | -0.3 |
| RRIRMRPPRLPRPRPRPWKRPRP | -0.0605 |
| RRIRVRPPRLPRPRPRPVPCPRP | -0.162 |
| RRIRGRPPRLPRPRPRPDCKPRP | 0.577 |

| Sequence | shrunken log2 fold change |
| --- | --- |
| RRIRTRPPRLPRPRPRPLRSPRP | 0.387 |
| RRIRWRPPRLPRPRPRPMGTPRP | -0.00133 |
| RRIRARPPRLPRPRPRPQFTPRP | 0.0535 |
| RRIRSRPPRLPRPRPRPHNRPRP | 0.0124 |
| RRIRWRPPRLPRPRPRPGPWPRP | 0.318 |
| RRIRQRPPRLPRPRPRPILVPRP | -0.0138 |
| RRIRMRPPRLPRPRPRPQMLPRP | 0.186 |
| RRIRNRPPRLPRPRPRPTNLPRP | -0.0193 |
| RRIRTRPPRLPRPRPRPKTNPRP | -0.157 |
| RRIRERPPRLPRPRPRPIAYPRP | -0.0148 |
| RRIRERPPRLPRPRPRPCRWPRP | -0.205 |
| RRIRKRPPRLPRPRPRPPKAPRP | 0.609 |
| RRIRQRPPRLPRPRPRPCKNPRP | -0.409 |
| RRIRGRPPRLPRPRPRPIYCPRP | 0.112 |
| RRIRERPPRLPRPRPRPITKPRP | -0.107 |
| RRIRHRPPRLPRPRPRPFLEPRP | -0.0353 |
| RRIRQRPPRLPRPRPRPHCLPRP | 0.0735 |
| RRIRDRPPRLPRPRPRPSCHPRP | -0.287 |
| RRIRKRPPRLPRPRPRPEICPRP | 0.661 |
| RRIRKRPPRLPRPRPRPSHFPRP | 0.355 |
| RRIRWRPPRLPRPRPRPPREPRP | 0.808 |
| RRIRLRPPRLPRPRPRPIYPPRP | -0.134 |
| RRIRRRPPRLPRPRPRPMFGPRP | -0.0512 |
| RRIRQRPPRLPRPRPRPNHSPRP | -0.762 |
| RRIRWRPPRLPRPRPRPERMPRP | 0.0689 |

| Sequence | shrunken log2 fold change |
| --- | --- |
| RRIRVRPPRLPRPRPRPNDQPRP | -0.0759 |
| RRIRSRPPRLPRPRPRPESWPRP | 0.762 |
| RRIRTRPPRLPRPRPRPDADPRP | 0.0357 |
| RRIRKRPPRLPRPRPRPPLLPRP | 0.524 |
| RRIRTRPPRLPRPRPRPMHLPRP | -0.318 |
| RRIRARPPRLPRPRPRPQSDPRP | 0.0175 |
| RRIRWRPPRLPRPRPRPLAIPRP | 0.0258 |
| RRIRNRPPRLPRPRPRPPDWPRP | 0.641 |
| RRIRPRPPRLPRPRPRPYAFPRP | -0.264 |
| RRIRWRPPRLPRPRPRPSYHPRP | -0.568 |
| RRIRTRPPRLPRPRPRPQDCPRP | 0.0249 |
| RRIRNRPPRLPRPRPRPHTGPRP | -0.313 |
| RRIRPRPPRLPRPRPRPTEEPRP | 0.551 |
| RRIRPRPPRLPRPRPRPTQDPRP | 0.833 |
| RRIRQRPPRLPRPRPRPWKQPRP | -0.08 |
| RRIRRRPPRLPRPRPRPIERPRP | 0.0771 |
| RRIRWRPPRLPRPRPRPVILPRP | -0.208 |
| RRIRARPPRLPRPRPRPHFKPRP | 0.00608 |
| RRIRFRPPRLPRPRPRPLMWPRP | 0.0935 |
| RRIRQRPPRLPRPRPRPYGCPRP | -0.00141 |
| RRIRIRPPRLPRPRPRPQLDPRP | -0.138 |
| RRIRERPPRLPRPRPRPLMIPRP | -0.348 |
| RRIRQRPPRLPRPRPRPDTTPRP | 0.0217 |
| RRIRYRPPRLPRPRPRPFVWPRP | 0.119 |
| RRIRERPPRLPRPRPRPPAIPRP | -0.0287 |

| Sequence | shrunken log2 fold change |
| --- | --- |
| RRIRIRPPRLPRPRPRPKEFPRP | -0.361 |
| RRIRMRPPRLPRPRPRPYLGPRP | -0.331 |
| RRIRTRPPRLPRPRPRPRTVPRP | 0.00464 |
| RRIRPRPPRLPRPRPRPRISPRP | -0.145 |
| RRIRPRPPRLPRPRPRPTRRPRP | 0.591 |
| RRIRFRPPRLPRPRPRPKQSPRP | 0.328 |
| RRIRHRPPRLPRPRPRPCYDPRP | -0.00778 |
| RRIRRRPPRLPRPRPRPHCDPRP | -0.164 |
| RRIRCRPPRLPRPRPRPANAPRP | -0.0408 |
| RRIRYRPPRLPRPRPRPADWPRP | 0.0899 |
| RRIRDRPPRLPRPRPRPFMMPRP | -0.265 |
| RRIRGRPPRLPRPRPRPQLFPRP | 0.838 |
| RRIRRRPPRLPRPRPRPDHTPRP | -0.447 |
| RRIRIRPPRLPRPRPRPECQPRP | -0.00158 |
| RRIRERPPRLPRPRPRPYKFPRP | -0.835 |
| RRIRWRPPRLPRPRPRPFDCPRP | -0.0389 |
| RRIRERPPRLPRPRPRPVPKPRP | 0.358 |
| RRIRWRPPRLPRPRPRPVNAPRP | 0.0945 |
| RRIRFRPPRLPRPRPRPPERPRP | 0.891 |
| RRIRERPPRLPRPRPRPRHQPRP | -0.164 |
| RRIRWRPPRLPRPRPRPHYEPRP | -0.209 |
| RRIRRRPPRLPRPRPRPFAWPRP | 0.189 |
| RRIRERPPRLPRPRPRPPFRPRP | 0.173 |
| RRIRHRPPRLPRPRPRPVIGPRP | -0.0297 |
| RRIRVRPPRLPRPRPRPSYSPRP | -0.376 |
